The supplement of paper PMC10065799, “High-throughput profiling of sequence recognition by tyrosine kinases and SH2 domains using bacterial peptide display” (eLife, 2023)

Columns and labels:
Fyn = Fyn (UniProt P06241); assay: phosphorylation enrichment, bacterial display (enrichment ratio); higher = better substrate or ligand; peptides without Tyr show the background
FGFR3 = FGFR3 (UniProt P22607); assay: as above
c-Abl (mouse) = assay: as above
EPHB2 = EPHB2 (UniProt P29323); assay: as above
Fes = Fes (UniProt P07332); assay: as above
MERTK = MERTK (UniProt Q12866); assay: as above
AncSZ = assay: as above
FGFR1 = FGFR1 (UniProt P11362); assay: as above
Jak2 = Jak2 (UniProt O60674); assay: as above
c-Src = assay: as above
Fer (mouse) = assay: as above
Hck = Hck (UniProt P08631); assay: as above
EPHB1 = EPHB1 (UniProt P54762); assay: as above
SHP2-C SH2 = assay: SH2 binding enrichment of the phosphorylated peptide, bacterial display (enrichment ratio); higher = better substrate or ligand; peptides without Tyr show the background
Grb2 SH2 = Grb2 SH2 (UniProt P62993); assay: as above
c-Src SH2 = assay: as above
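For SH2 binding enrichment of the phosphorylated peptide, bacterial display in this document: peptide library displayed on the E. coli surface as eCPX fusions, selected cells deep-sequenced, score is each peptide's frequency after selection divided by its frequency in the input.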
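For phosphorylation enrichment, bacterial display in this document: 11-residue human phosphosite peptides and single-mutation variants displayed on the E. coli surface, counted by deep sequencing, each peptide's frequency after selection divided by its frequency in the unselected input library; frequency after pTyr selection over input frequency; kinase dosed for 20-30% of maximal phosphorylation in three min.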

Chain of Fyn (P06241 whole entry, looked up): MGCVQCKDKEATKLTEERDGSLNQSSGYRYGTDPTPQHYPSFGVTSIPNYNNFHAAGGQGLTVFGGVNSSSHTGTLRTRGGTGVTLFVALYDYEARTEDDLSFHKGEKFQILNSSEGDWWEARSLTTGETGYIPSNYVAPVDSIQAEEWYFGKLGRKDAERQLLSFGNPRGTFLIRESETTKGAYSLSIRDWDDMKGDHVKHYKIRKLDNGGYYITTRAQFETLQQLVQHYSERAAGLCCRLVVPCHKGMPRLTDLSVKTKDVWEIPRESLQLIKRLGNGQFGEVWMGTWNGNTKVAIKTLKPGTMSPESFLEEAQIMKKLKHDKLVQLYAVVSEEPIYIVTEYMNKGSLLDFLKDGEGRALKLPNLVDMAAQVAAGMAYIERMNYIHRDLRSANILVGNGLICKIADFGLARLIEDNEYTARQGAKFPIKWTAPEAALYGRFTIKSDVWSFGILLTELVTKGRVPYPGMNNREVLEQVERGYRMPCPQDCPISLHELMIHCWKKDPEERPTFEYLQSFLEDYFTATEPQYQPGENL
Chain of Grb2 SH2 (P62993 whole entry, looked up): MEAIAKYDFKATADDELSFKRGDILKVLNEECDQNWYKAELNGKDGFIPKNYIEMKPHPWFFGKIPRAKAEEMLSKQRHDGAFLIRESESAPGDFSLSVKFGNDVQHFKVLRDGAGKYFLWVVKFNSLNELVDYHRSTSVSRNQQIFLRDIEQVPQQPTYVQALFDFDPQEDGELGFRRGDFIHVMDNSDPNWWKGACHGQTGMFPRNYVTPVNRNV
Chain of EPHB1 (P54762 whole entry, looked up): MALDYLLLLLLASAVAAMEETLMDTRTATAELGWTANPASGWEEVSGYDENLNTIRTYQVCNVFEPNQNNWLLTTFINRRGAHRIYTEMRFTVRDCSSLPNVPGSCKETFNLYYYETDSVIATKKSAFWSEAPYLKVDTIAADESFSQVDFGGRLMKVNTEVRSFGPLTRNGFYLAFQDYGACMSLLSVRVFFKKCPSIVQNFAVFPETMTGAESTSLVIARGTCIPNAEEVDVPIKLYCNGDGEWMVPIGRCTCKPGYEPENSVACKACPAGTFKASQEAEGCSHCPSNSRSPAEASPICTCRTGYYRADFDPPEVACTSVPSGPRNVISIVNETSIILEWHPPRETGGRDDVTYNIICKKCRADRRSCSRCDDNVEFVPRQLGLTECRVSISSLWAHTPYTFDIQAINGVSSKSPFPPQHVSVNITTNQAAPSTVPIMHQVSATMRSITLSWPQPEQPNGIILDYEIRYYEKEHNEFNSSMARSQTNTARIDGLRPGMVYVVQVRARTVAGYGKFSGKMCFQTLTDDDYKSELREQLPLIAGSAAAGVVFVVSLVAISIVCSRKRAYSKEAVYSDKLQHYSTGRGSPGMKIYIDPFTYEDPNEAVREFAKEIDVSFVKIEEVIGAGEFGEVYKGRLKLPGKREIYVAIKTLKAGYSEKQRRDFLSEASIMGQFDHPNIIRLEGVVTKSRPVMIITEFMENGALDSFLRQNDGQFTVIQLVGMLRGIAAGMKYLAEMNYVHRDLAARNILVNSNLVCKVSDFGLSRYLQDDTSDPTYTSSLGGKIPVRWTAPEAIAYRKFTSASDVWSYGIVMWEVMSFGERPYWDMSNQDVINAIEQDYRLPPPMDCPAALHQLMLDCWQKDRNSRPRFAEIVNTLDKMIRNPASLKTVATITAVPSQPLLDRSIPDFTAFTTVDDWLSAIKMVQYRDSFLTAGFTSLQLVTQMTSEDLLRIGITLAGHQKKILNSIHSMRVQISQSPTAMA
Chain of Jak2 (O60674 whole entry, looked up): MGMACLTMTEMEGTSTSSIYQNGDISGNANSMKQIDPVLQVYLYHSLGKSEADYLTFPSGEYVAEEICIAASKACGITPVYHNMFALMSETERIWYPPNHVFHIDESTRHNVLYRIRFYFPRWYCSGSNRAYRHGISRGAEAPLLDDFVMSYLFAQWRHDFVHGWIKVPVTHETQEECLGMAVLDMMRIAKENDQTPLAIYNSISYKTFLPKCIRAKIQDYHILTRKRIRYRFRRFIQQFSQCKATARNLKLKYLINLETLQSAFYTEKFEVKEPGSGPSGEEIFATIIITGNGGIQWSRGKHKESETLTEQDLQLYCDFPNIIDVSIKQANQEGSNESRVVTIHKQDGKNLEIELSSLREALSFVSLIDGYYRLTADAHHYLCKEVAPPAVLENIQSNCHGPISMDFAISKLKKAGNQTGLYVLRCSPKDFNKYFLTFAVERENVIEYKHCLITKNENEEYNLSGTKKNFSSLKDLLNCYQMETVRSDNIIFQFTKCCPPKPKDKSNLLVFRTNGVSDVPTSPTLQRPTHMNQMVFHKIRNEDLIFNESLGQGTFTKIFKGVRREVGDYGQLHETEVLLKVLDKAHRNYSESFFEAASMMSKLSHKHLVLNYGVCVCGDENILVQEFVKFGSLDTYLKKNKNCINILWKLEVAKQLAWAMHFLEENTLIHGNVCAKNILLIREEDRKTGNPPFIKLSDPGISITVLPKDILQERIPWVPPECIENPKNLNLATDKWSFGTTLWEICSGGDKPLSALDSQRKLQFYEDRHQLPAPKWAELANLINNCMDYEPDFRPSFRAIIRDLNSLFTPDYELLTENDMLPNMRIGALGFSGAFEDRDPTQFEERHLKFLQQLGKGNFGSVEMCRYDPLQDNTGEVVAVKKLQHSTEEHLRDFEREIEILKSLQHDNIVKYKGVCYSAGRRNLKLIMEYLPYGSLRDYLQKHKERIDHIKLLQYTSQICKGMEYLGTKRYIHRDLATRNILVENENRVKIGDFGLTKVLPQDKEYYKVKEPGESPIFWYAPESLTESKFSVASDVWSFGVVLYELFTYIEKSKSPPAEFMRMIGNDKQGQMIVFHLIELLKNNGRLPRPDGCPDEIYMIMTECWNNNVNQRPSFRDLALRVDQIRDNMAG
Chain of FGFR3 (P22607 whole entry, looked up): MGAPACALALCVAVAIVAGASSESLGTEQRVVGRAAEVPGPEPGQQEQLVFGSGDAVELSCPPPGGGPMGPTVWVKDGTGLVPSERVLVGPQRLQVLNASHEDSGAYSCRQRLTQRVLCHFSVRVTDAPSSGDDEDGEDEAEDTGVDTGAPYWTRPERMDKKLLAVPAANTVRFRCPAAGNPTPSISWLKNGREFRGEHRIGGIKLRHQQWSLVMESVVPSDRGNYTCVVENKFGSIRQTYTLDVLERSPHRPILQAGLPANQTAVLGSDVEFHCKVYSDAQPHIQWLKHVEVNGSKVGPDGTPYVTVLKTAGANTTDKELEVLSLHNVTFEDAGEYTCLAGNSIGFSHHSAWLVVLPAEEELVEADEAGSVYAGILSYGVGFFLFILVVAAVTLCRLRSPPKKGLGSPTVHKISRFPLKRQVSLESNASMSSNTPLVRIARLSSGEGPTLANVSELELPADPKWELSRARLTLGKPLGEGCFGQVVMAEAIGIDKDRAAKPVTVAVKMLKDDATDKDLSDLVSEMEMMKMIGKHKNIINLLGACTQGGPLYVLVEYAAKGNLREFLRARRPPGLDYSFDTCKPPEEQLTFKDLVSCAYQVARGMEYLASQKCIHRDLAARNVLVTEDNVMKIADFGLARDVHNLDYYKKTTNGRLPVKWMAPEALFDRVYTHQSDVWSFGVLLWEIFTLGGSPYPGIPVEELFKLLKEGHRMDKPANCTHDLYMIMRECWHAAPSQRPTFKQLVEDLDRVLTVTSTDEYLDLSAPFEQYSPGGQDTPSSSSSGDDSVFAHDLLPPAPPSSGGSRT
Chain of FGFR1 (P11362 whole entry, looked up): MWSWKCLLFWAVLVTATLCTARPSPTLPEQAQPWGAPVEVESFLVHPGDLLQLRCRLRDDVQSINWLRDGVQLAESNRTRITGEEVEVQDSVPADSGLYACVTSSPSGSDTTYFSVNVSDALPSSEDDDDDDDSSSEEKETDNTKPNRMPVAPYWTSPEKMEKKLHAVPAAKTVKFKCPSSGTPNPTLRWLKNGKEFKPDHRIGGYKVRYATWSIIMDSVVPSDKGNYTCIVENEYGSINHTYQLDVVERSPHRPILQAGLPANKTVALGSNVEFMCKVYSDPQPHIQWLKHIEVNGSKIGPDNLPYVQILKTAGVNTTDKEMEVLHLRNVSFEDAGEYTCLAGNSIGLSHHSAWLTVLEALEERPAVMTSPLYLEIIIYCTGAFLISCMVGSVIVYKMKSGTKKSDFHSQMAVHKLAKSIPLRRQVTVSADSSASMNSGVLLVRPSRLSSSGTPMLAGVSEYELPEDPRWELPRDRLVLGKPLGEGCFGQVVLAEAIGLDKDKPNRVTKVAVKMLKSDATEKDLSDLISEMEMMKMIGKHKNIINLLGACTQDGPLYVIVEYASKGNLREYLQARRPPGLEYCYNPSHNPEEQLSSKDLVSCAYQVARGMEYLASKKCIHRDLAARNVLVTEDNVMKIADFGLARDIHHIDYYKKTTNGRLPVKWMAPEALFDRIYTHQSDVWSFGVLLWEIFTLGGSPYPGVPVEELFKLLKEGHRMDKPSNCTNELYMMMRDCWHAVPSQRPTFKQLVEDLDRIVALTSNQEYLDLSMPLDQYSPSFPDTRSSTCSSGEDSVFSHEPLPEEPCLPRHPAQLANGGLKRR
Chain of Hck (P08631 whole entry, looked up): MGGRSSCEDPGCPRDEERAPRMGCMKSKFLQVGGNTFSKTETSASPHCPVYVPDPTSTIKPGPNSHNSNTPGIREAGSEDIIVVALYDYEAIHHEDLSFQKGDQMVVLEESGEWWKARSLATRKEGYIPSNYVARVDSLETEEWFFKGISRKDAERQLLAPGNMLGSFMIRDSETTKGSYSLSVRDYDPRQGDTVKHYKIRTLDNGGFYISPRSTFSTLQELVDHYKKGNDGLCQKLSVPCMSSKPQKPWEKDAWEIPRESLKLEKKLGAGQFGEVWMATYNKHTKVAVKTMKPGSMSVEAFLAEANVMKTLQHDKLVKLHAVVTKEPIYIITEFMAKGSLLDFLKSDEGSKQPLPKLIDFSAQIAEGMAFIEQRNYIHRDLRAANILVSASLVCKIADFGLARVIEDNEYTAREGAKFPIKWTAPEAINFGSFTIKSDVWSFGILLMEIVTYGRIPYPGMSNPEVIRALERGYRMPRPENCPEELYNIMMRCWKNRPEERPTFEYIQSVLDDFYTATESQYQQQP

Sequence | phosphorylation enrichment (Fyn) | phosphorylation enrichment (FGFR3) | phosphorylation enrichment (c-Abl (mouse)) | phosphorylation enrichment (EPHB2) | phosphorylation enrichment (Fes) | phosphorylation enrichment (MERTK) | phosphorylation enrichment (AncSZ) | phosphorylation enrichment (FGFR1) | phosphorylation enrichment (Jak2) | phosphorylation enrichment (c-Src) | phosphorylation enrichment (Fer (mouse)) | phosphorylation enrichment (Hck) | phosphorylation enrichment (EPHB1) | SH2 binding enrichment (SHP2-C SH2) | SH2 binding enrichment (Grb2 SH2) | SH2 binding enrichment (c-Src SH2)
ATVRPYRPFII [LRP5_Y1528_A1525V_YF] | 0.397 | 0.459 | 0.505 | 0.336 | 0.61 | 0.395 | 0.653 | 0.418 | 0.644 | 0.493 | 0.406 | 0.462 | 0.438 | 0.79 | 0.953 | 0.616
AVDDKYSRREE [SART1_Y685_I681V] | 0.567 | 0.581 | 0.478 | 0.516 | 0.977 | 0.426 | 0.887 | 0.457 | 0.679 | 0.427 | 0.458 | 0.533 | 0.453 | 0.925 | 1.02 | 0.586
AVLALHNSTRD [TGFB1_Y81_Y81H] | 0.423 | 0.387 | 0.494 | 0.323 | 0.647 | 0.398 | 0.546 | 0.346 | 0.519 | 0.322 | 0.38 | 0.359 | 0.354 | 0.588 | 0.752 | 0.517
AVLQLYIFVAT [CFTR_Y1014_P1013L] | 0.516 | 1.09 | 0.837 | 0.599 | 1.37 | 0.498 | 1.3 | 0.462 | 1.24 | 0.567 | 0.573 | 0.562 | 0.766 | 0.701 | 1 | 0.439
CDKEYYSVHNK [MET_Y1235_Y1230C] | 0.608 | 2.09 | 0.949 | 0.69 | 1.2 | 0.573 | 2.06 | 2.49 | 1.32 | 0.761 | 0.601 | 0.788 | 0.734 | 0.553 | 0.655 | 0.51
CEHRGFLFLAI [TEK_Y897_Y897F_YF] | 0.403 | 0.651 | 0.907 | 0.513 | 1.16 | 0.442 | 0.949 | 0.484 | 1.06 | 0.506 | 0.515 | 0.434 | 0.392 | 0.996 | 1.47 | 0.759
CENNRYGMGAS [PDHA1_Y227_T231A] | 0.405 | 0.476 | 0.594 | 0.421 | 0.754 | 0.324 | 0.655 | 0.413 | 0.629 | 0.349 | 0.365 | 0.392 | 0.403 | 0.723 | 0.849 | 0.457
CITIHYNYMCN [TP53_Y234_T230I] | 0.423 | 0.662 | 0.582 | 0.515 | 1.01 | 0.389 | 0.923 | 0.474 | 0.881 | 0.381 | 0.569 | 0.44 | 0.605 | 1.44 | 1.56 | 1.57
CNPRRYPVLMS [OR2T1_Y182_L180R] | 0.501 | 0.485 | 0.59 | 0.496 | 0.833 | 0.411 | 0.625 | 0.384 | 0.822 | 0.494 | 0.358 | 0.373 | 0.49 | 0.954 | 1.1 | 1.18
CPFNLYAEQLS [HGD_Y40_YF] | 0.642 | 0.698 | 0.77 | 0.816 | 1.37 | 0.769 | 1.15 | 0.577 | 0.935 | 0.696 | 0.636 | 0.772 | 1.16 | 0.708 | 0.892 | 0.645
CPPKVYELMIA [ABL2_Y515_R519I] | 0.916 | 0.959 | 0.766 | 2.25 | 1.34 | 5.18 | 1.24 | 1.34 | 1.2 | 1.99 | 7.5 | 1.03 | 7.46 | 0.658 | 0.817 | 1.44
CSTIHYNYMCN [TP53_Y234_T230S] | 0.461 | 0.585 | 0.411 | 0.542 | 0.758 | 0.375 | 0.784 | 0.545 | 0.656 | 0.435 | 0.555 | 0.399 | 0.586 | 3.83 | 1.11 | 6.46
CTTIHFNFMCN [TP53_Y234_Y234F_YF] | 0.484 | 0.83 | 0.824 | 0.656 | 1.31 | 0.525 | 1.07 | 0.614 | 1.33 | 0.507 | 0.569 | 0.582 | 0.604 | 2.02 | 2.01 | 1.93
CTTIHYNDMCN [TP53_Y234_Y236D] | 0.422 | 0.539 | 0.589 | 0.528 | 0.85 | 0.396 | 1.03 | 0.485 | 0.724 | 0.492 | 0.421 | 0.455 | 0.451 | 0.658 | 0.756 | 2.42
CTTIHYNFMCF [TP53_Y234_N239Y_YF] | 0.414 | 0.738 | 0.683 | 0.522 | 1.12 | 0.409 | 1.04 | 0.621 | 0.913 | 0.474 | 0.671 | 0.451 | 0.608 | 2.01 | 1.95 | 1.58
CTTIHYNFMWN [TP53_Y234_C238W_YF] | 0.508 | 0.981 | 1.09 | 0.727 | 1.66 | 0.717 | 1.43 | 0.621 | 1.5 | 0.59 | 1.04 | 0.543 | 0.725 | 0.802 | 0.924 | 0.669
CTTIHYNYLCN [TP53_Y234_M237L] | 0.51 | 0.594 | 0.479 | 0.491 | 0.84 | 0.436 | 0.873 | 0.505 | 0.655 | 0.394 | 0.568 | 0.536 | 0.482 | 4.87 | 1.45 | 4.93
CTTIRYNYMCN [TP53_Y234_H233R] | 0.464 | 0.544 | 0.491 | 0.583 | 0.81 | 0.457 | 0.787 | 0.475 | 0.674 | 0.417 | 0.479 | 0.449 | 0.461 | 1.55 | 1.48 | 3.56
CTTLHYNYMCN [TP53_Y234_I232L] | 0.492 | 0.745 | 0.675 | 0.618 | 1.01 | 0.558 | 0.858 | 0.811 | 0.827 | 0.508 | 1.41 | 0.547 | 0.808 | 2.06 | 1.21 | 4.31
DAHFTYSRYPW [LY75_Y888_D884A] | 2.4 | 0.641 | 1.19 | 5.6 | 0.885 | 1.27 | 1.16 | 0.716 | 1.02 | 3.24 | 0.5 | 3.76 | 2.76 | 0.761 | 0.817 | 0.51
DAKTIYDFTDT [PDK1_Y136_A134T] | 3.52 | 0.729 | 0.724 | 0.604 | 1.07 | 1.48 | 1.07 | 0.508 | 0.876 | 3.32 | 1.61 | 1.33 | 0.696 | 0.58 | 0.748 | 0.46
DDEVFYSPRSL [OTC_Y317] | 0.574 | 0.847 | 1.22 | 0.597 | 1.36 | 0.592 | 1.67 | 0.504 | 1.36 | 0.87 | 1.57 | 2 | 0.597 | 0.647 | 0.774 | 0.47
DDIPLYLKGGV [COX7A2_Y44_E40D] | 0.459 | 0.737 | 0.673 | 0.701 | 1.12 | 0.41 | 1.01 | 0.496 | 1.02 | 0.435 | 0.401 | 0.513 | 0.525 | 0.663 | 0.862 | 0.479
DEDEEYEFMNR [ERBB3_Y1197_YF] | 0.592 | 0.788 | 0.692 | 0.515 | 1.17 | 0.538 | 1.26 | 0.724 | 0.965 | 0.456 | 0.487 | 0.579 | 0.503 | 1.28 | 1.04 | 0.664
DEGVNHFMSKG [FBXO8_Y156_Y156H] | 0.443 | 0.504 | 0.516 | 0.424 | 0.64 | 0.324 | 0.61 | 0.436 | 0.42 | 0.297 | 0.357 | 0.364 | 0.433 | 0.778 | 0.718 | 0.464
DFGSGYPNDPK [RNASEH2A_Y210_YF] | 0.382 | 0.579 | 0.562 | 0.469 | 0.678 | 0.424 | 0.778 | 0.397 | 0.906 | 0.464 | 0.39 | 0.423 | 0.516 | 0.712 | 0.749 | 0.409
DGTIVYTGLET [USH2A_Y4487] | 0.706 | 0.636 | 0.764 | 0.528 | 1.01 | 0.465 | 0.821 | 0.755 | 0.901 | 1.05 | 0.468 | 0.773 | 0.525 | 2.8 | 0.829 | 0.844
DHLASYLDKVR [KRT10_Y160_R156H] | 0.406 | 0.469 | 0.473 | 0.477 | 0.677 | 0.453 | 0.585 | 0.46 | 0.639 | 0.457 | 0.363 | 0.439 | 0.369 | 0.714 | 0.776 | 0.44
DIPIRYSITGV [CDH4_Y205] | 0.447 | 0.478 | 0.641 | 0.474 | 0.827 | 0.405 | 0.822 | 0.444 | 0.85 | 0.367 | 0.402 | 0.45 | 0.391 | 0.972 | 0.774 | 0.53
